The record followed here is PMC6520340, “Development of a ribonuclease containing a G4-specific binding motif for programmable RNA cleavage”.

The series concerns the target RHAU140-RNase HI fusion (Homo sapiens (RHAU) / Bacillus …, UniProt Q9H2U1 53-192+=SGGGSGGGSGGGSGGG+Q9KEI9:59-196, internal_change). Briefly: EMSA; 10 uM DNA, 50 uM protein; 100 mM K+; Native 10% PAGE in 1X TBE, 20 mM potassium phosphate, 100 mM KCl, pH 7.0; UV shadowing; temperature not stated. The conditions noted are these: protein: recombinant.

Sequence of RHAU140-RNase HI fusion (Q9H2U1 other isoform, or with tags, fused parts or gaps): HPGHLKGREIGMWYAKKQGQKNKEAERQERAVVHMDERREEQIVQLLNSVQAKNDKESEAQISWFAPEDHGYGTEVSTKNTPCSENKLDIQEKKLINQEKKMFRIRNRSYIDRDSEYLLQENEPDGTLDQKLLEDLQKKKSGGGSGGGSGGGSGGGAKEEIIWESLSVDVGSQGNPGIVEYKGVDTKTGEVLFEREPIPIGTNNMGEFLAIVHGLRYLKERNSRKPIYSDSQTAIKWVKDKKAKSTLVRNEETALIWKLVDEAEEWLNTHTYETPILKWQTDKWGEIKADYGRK

For the molecule TTGGGTGGGTGGGTGGGTTCAACGACGACGGCATCATC (structured_DNA) [B1], the binding result (parallel G4 with 3' single-stranded tail) is reported as “binds”.

For the molecule TTGACTAAGTGCCTTAGTTCAACGACGACGGCATCATC (ssDNA) [B0], for the setting “single strand”, the binding result is given as “no binding”.
